This assay has as its target cerulean-tagged CaM (Cer-CaMWT) (UniProt P0DP23 1-149). Kind of assay: FRET or BRET. In general terms: In BRET a luciferase serves as donor, and the signal depends on an acceptor being close.

The record followed here is article PMC6080896 (The Journal of General Physiology, 2018).

B1: Venus-tagged CaV1.1 CI (Ven-CaV1.1 CI) (domain or fragment)
chain: not shown
A word on the Kd: it is the free concentration of one partner at which half of the binding sites on the other are occupied at equilibrium, for simple one-to-one binding. Read a low Kd as a tighter complex. B1 showed a Kd of about 2.3 µM.
